Article PMC10294715, “Single-cell RNA-seq uncovers dynamic processes orchestrated by RNA-binding protein DDX43 in chromatin remodeling during spermiogenesis”

Biological target: DDX43 (Mus musculus, UniProt D3Z6P9 1-646)
Assay: EMSA; EMSA: 10 nM biotin-RNA, 50 mM Tris-HCl pH 7.5, 100 mM KCl, 2.5% glycerol, 0.05% NP-40, 4 mM EDTA, 1 mM DTT, RiboLock 2 U, 37 C 30 min; 8% native TBE PAGE at 4 C; G4 folded in 50 mM Tris-HCl pH 7.5, 150 mM KCl, 0.1 mM EDTA
Conditions: protein: recombinant; tags: His tag (Ni-NTA, pET28a); label: 3' biotin; single strand

DDX43, sequence (D3Z6P9 entry or part of it): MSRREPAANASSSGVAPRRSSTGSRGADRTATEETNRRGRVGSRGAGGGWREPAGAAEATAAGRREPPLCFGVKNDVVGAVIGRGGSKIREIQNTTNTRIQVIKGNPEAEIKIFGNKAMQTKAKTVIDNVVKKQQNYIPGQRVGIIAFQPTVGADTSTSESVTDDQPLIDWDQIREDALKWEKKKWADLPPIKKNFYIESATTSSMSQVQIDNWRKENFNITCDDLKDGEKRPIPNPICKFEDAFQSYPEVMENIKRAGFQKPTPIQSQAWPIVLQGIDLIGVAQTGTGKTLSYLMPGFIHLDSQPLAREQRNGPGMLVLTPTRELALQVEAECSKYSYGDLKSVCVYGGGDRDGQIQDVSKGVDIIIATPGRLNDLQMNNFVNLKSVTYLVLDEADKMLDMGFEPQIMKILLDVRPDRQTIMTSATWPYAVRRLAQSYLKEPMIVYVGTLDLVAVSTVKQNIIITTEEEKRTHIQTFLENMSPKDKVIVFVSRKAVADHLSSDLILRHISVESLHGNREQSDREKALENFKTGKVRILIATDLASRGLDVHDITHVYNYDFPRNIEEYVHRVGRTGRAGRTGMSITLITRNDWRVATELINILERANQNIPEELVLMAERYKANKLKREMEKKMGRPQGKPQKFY

ACCGCUGCCGUCGCUCCG (ssRNA) [ssRNA]: no binding.
